Measured values from patent publication US10752881B2, “Trans-differentiation of differentiation cells” (Helmholtz Zentrum München-Deutsches Forschungszentrum für …, priority 2014, dated 2020).
Residues, ends and D or L forms follow the SMILES beside them. *: point of attachment. Cbz = O=C(OCc1ccccc1)*; CH2F = FC*

Tests used:
[1] = system: postnatal mouse astrocytes; details: for effect on reprogramming efficiency of astrocytes: Ascl1-transfected, 4 days of calcitriol treatment
Protocol: (C) Histogram of astroglial cultures transfected with Ascl1-RFP-encoding plasmid alone or in combination with WT-Bcl-2, EE-Bcl-2 or A-Bcl-2 at 4 days post-transfection (DPT). The number of transfected cells (RFP+) at final time point (4 DPT) was normalized to the initial number of transfected cells (1 DPT) to calculate the % of survival. The % of neuronal conversion was analysed by β-III-tubulin immunostaining and normalized to total number of RFP+ cells at the end of the experiment. Error bars indicate ±SD. *p<0.05, **p<0.01; ANOVA Tukeys post-test.
A, Quantifications at 5 DPT (days post-transfection) showing the effect of the inhibitor of ferroptosis, α-toc and the inhibitor of apoptosis, ZVAD in survival/efficiency of conversion of astroglial cells transfected with Ascl1-RFP.
C, Percentage of neurons in astroglial cells transfected with Ascl1-encoding plasmid alone or in combination with Bcl-2 and/or Vdr at 5 DPT after 4 days of treatment with calcitriol or untreated.
After removal of the meninges, grey matter tissue was dissected from P5-P7 cerebral cortex of C57BL/6J mice and dissociated mechanically. Subsequently, cells were centrifuged for 5 min at 1000 rpm, re-suspended, and plated in medium consisting of DMEM/F12 (Gibco), 3.5 mM glucose (Sigma), 10% fetal calf serum (Gibco), 5% horse serum (Gibco), penicillin/streptomycin (Gibco) and supplemented with B27 (Gibco), 10 ng/mL epidermal growth factor (EGF, Roche) and 10 ng/mL fibroblast growth factor 2 (FGF2, Roche). After one week expansion cells were harvested using trypsin/EDTA (Gibco) and plated onto poly-D-lysine (Sigma-Aldrich) coated glass coverslips in 24-well plates (BD Biosciences) or directly onto the plastic for time lapse experiments at a density of 60,000 cells per well in the same medium. After 24 hours cells were either transfected with plasmid or infected with retroviral vectors and after further 24 hours medium was changed to differentiation medium composed of DMEM/F12 high glucose with GlutaMAX, penicillin/streptomycin and B27 supplement (Gibco) to allow neuronal differentiation.
For transfection DNA-liposome complexes were prepared in Optimem medium (Invitrogen) using the retroviral plasmids described below and Lipofectamine 2000 (Invitrogen). Astrocyte cultures were exposed to DNA-liposome complexes at a concentration of 0.5 μg DNA per 400 μl of Optimem medium for 4 hours and cultured after that in the differentiation medium as above.
Cells were fixed in 4% paraformaldehyde (PFA) in phosphate-buffered saline (PBS) for 10 min at room temperature (RT), washed in PBS and pretreated in 0.5% Triton X-100 in PBS for 30 min, followed by incubation in 2% BSA and 0.5% Triton X-100 in PBS for 30 min. Primary antibodies were incubated on specimen overnight at 4° C. in 2% BSA, 0.5% Triton X-100 in PBS.

adult human fibroblasts = experiment: Neuronal reprogramming of adult human fibroblasts; type: cell-based; details: for effect on reprogramming efficiency of human fibroblasts: combination Ascl1/Bcl-2/Vdr, 60 DPI
Description: To determine whether Bcl-2 would also efficiently enhance reprogramming into neurons in cells from other species, we used fibroblasts obtained from a person that were expanded and transduced as described above with the retroviral vector encoding Ascl1 and RFP alone or in combination with a second vector encoding the human BCL-2 (hBCL-2) and the reporter GFP.
Primary cultures of human skin fibroblasts were established from 3 mm diameter full thickness punch biopsy specimens which were mechanically dissociated before plating. […] For reprogramming experiments cells were plated on coverslips in 24-well plates as described above for astrocytes and 48 hours after infection medium was changed to DMEM high glucose with GlutaMAX and 1% fetal calf serum, penicillin/streptomycin and B27 supplement (Gibco). During the reprogramming process, medium was replaced by conditioned-astrocyte medium every 3 days. Conditioned-astrocyte medium is obtained by growing astroglial culture with differentiation medium (see Cell cultures of astroglia from the postnatal mouse cerebral cortex above) during minimum of 2 days. Then the medium is collected from astrocytes and used for reprogramming of the human cells.
For the expression of neurogenic transcription factors we used self-inactivating retroviral vectors containing the actin promoter with cytomegalovirus enhancer (pCAG) driving the expression of the gene of interest (flag/myc-Ascl1, flag-Neurog2, Bcl-2 or Dlx-2) linked to a fluorescent reporter by internal ribosomal entry site (IRES) as previously described (Heinrich et al., 2011). The mouse version of Bcl-2 cDNA was obtained from Source BioScience (IRAVp968H01145D; pCMV-SPORT6.1-Bcl-2) and the human cDNA version (h-Bcl-2) from addgene (Plasmid number 8793; pMIG-Bcl-2-IRES-GFP) to generate RV-pCAG-flag/myc-Ascl1-IRES-Bcl-2, RV-pCAG-flag-Neurog2-IRES-Bcl-2 or RV-pCAG-Bcl-2-IRES-GFP, which encodes for both Bcl-2 and the reporter GFP. The Bcl-2 mutants A-Bcl-2 and EE-Bcl-2 were produced by directed mutagenesis with the oligos 5′-[…]-3′ (SEQ ID NO: 18) (and complementary (SEQ ID NO: 20)) and 5′-[…]-3′ (SEQ ID NO: 19) (and complementary (SEQ ID NO: 21)) respectively, to generate the vectors pCMV-SPORT6.1-A-Bcl-2, RV-pCAG-Ascl1-IRES-A-Bcl-2 and RV-pCAG-Neurog2-IRES-A-Bcl-2 and the corresponding EE-Bcl-2 versions. Mutations were verified by sequencing. The murine Vdr was obtained from Sino Biological (MG51106-G, Vector pGEM-T) and sub-cloned in the retroviral vector to generate RV-pCAG-Vdr-IRES-GFP.

reactive glial cells = experiment: In vivo conversion of reactive glial cells into neurons after stab wound injury; details: for acquisition of neuronal marker NeuN by singly transduced cells: single GFP+ or RFP+ cells
Description: A, Experimental protocol for stab wound injury and subsequent infection with retroviral vectors (Neurog2/RFP and Bcl-2/GFP) or treatment with calcitriol, analysed at 10 or 20 days post-infection (DPI).
To highlight the relevance of our findings we next tested the efficiency of the methods described above in vivo. For that, we performed stab wound injury followed by injection of retroviral vectors encoding Neurog2-IRES-RFP and Bcl-2-IRES-GFP next to the injury site (FIG. 7A) using a previously described protocol (see Heinrich et al., 2014). Control infected cells were glial in nature, mostly NG2+ cells of the oligodendrocyte lineage or S100b/GFAP+ astrocytes as described before (Heinrich et al., 2014). […] To examine whether key metabolic constraints observed to be important for fate conversion in vitro were also relevant in vivo we tested activation of the Vitamin D receptor pathway by the ligand calcitriol.
Operations were performed in accordance with the policies of the state of Bavaria under license number 55.2-1-54-2532-171-11. A unilateral stab wound lesion (1 mm long, 0.6 mm deep from the dura mater) was performed in the right neocortex with a 19 gauge-thick lancet without injuring the cortical white matter, as previously described (Sirko et al. 2013; Simon et al. 2011). Three days later, 0.5-1 μl of retroviral suspension (Neurog2-IRES-RFP and Bcl-2-IRES-GFP, 1:1) was injected in the site of the lesion with a glass capillary connected to a microinjector (Nanoliter2000+Sys-Micro4, World Precision Instrument), at a rate of 30-60 nl/min. The needle was retracted 5 minutes after completing the injection. When indicated in the text, 200 μl of Calcitriol (Tocris) diluted in corn oil (final concentration of 1 ng/μl) were administered through oral gavage 2 days after the retroviral injection. The dosage was determined according with previous publications (Nashold et al. 2013).
Animals were anesthetized and transcardially perfused with 1× phosphate-buffered saline (PBS), followed by 4% paraformaldehyde (PFA) in PBS. Brains were postfixed for 2 hours, washed twice with PBS and embedded in 4% agarose/water. Finally, 60 μm-thick coronal sections were cut using a vibrating microtome (Leica).

[2] = system: astroglia isolated from mouse cerebral cortex at postnatal day 5-7; experiment: Continuous single cell live imaging of Ascl1-mediated astrocyte-to-neuron reprogramming; type: cell-based; details: for increase of proportion of cells successfully completing reprogramming into neurons: Ascl1 + Bcl-2 vs Ascl1 only
Description: In order to identify the cellular mechanisms of neuronal reprogramming, astroglia isolated from mouse cerebral cortex at postnatal day 5-7 were transfected with an Ascl1-encoding vector thereby targeting non-proliferating cells in addition to those transduced by approaches such as MLV-based retroviral vectors that require proliferation and break-down of the nuclear envelope for successful gene transfer. Our transfection protocol (Heinrich et al., PLoS biology 8, e1000373 (2010); Heinrich et al., Nature protocols 6, 214-228 (2011)) enables cells labelled by red fluorescent protein (RFP) 24 hours after transfection to be subject to continuous live imaging for the main phase of reprogramming (i.e. 6 days). Glial and neuronal cells were identified by their morphology, with the former displaying a flat astrocyte-like morphology and the latter with a round cell soma and thin processes (monopolar, bipolar and multipolar) at least 3× longer than the cell soma. This morphology-based classification was confirmed by post-imaging immunostaining (FIG. 1A). Few of the cells transduced with Ascl1 divided during the 150 hours observation (15%: FIG. 1E). Thus, the vast majority of direct neuronal reprogramming occurs in the absence of proliferation in this system.
Time-lapse video microscopy was performed with a cell observer (Zeiss) at a constant temperature of 37° C. and 8% CO2. Phase contrast images were acquired every 5 minutes, and fluorescence pictures every 4-6 hours for 6.5-7.5 days using a 10× phase contrast objective (Zeiss), and an AxioCamHRm camera with a self-written VBA module remote controlling Zeiss AxioVision 4.7 software (Rieger and Schroeder, Journal of cellular biochemistry 108, 343-352 (2009)). Movies were assembled using Image J 1.42q (National Institute of Health, USA) software and are played at speed of 3 frames per second.

[3] = system: Mouse embryonic fibroblasts (MEFs); experiment: Fibroblast-to-neuron reprogramming of MEFs with retroviral vectors, β-III-tubulin immunostaining; type: cell-based
vitamin d receptor (vdr) = experiment: Vdr expression during neuronal reprogramming (immunostaining); type: cell-based; details: during neuronal reprogramming with Ascl1, 5 DPI
Protocol: A, Percentage of cells expressing Vdr in cultures infected with Ascl1-encoding vector alone or Ascl1+A-Bcl-2 at 5 DPI. Vdr presence was determined by immunostaining (B). Note that Bcl-2 increases the proportion of cells expressing endogenous Vdr during neuronal reprogramming.

[4] = astroglial cells transfected with Ascl1-RFP, 5 DPT

COC(=O)C[C@H](NC(=O)[C@H](C)NC(=O)[C@@H](NC(=O)OCc1ccccc1)C(C)C)C(=O)CF [ZVAD] (Cbz-Val-Ala-Asp(OMe)-CH2F)
effect on efficiency of conversion (reprogramming efficiency) [1, 4]: not conversion efficiency

C=C1/C(=C\C=C2/CCC[C@]3(C)[C@@H]([C@H](C)CCCC(C)(C)O)CC[C@@H]23)C[C@@H](O)C[C@@H]1O [calcitriol, reference compound]
effect on reprogramming efficiency of human fibroblasts (adult human fibroblasts): enhance reprogramming efficiency | effect on morphology and maturation state of the neurons (reactive glial cells; Neurog2 + Bcl-2, calcitriol 200 ng orally, 23 days after viral infection): profoundly improved morphology and maturation state of the neurons | proportion of NeuN+ neurons of all co-transduced cells (reactive glial cells; Neurog2 + Bcl-2 co-expression, calcitriol 200 ng orally 2 days after viral injection, 10 DPI): ~90% | effect on reprogramming efficiency of astrocytes ([1]; 5 DPT): enhance reprogramming efficiency

Cc1c(C)c2c(c(C)c1O)CC[C@@](C)(CCC[C@H](C)CCC[C@H](C)CCCC(C)C)O2 [α-tocopherol]
effect on efficiency of conversion (reprogramming efficiency) [1, 4]: increase reprogramming efficiency | effect on survival / cell death [1, 4]: reduces cell death

hBcl-2: human BCL-2 encoded by a retroviral vector with the reporter GFP
increase of β-III-tubulin+ cells compared to Ascl1/RFP expressing cells (adult human fibroblasts; co-transduced with Ascl1): 32 × fold | co-infected cells (RFP and GFP) that were β-III-tubulin+ (adult human fibroblasts; co-transduced with Ascl1, fibroblasts from a person): up to 70%

B1: Bcl-2: mouse Bcl-2 cDNA expressed from plasmid or retroviral vector; anti-apoptotic member of the Bcl-2 family (protein, listed as Mus musculus)
chain: MAQAGRTGYDNREIVMKYIHYKLSQRGYEWDAGDADAAPLGAAPTPGIFSFQPESNPMPAVHRDMAARTSPLRPLVATAGPALSPVPPVVHLTLRRAGDDFSRRYRRDFAEMSSQLHLTPFTARGRFATVVEELFRDGVNWGRIVAFFEFGGVMCVESVNREMSPLVDNIALWMTEYLNRHLHTWIQDNGGWDAFVELYGPSMRPLFDFSWLSLKTLLSLALVGACITLGAYLGHK
fraction of cells with acquired neuronal morphology dying ([2]; Ascl1 + Bcl-2): about ⅓ | survival rate of remaining glial cells ([2]; Ascl1 + Bcl-2): 10% | survival rate of successfully converted cells ([2]; Ascl1 + Bcl-2): 2/3 | effect on rate of proliferation during reprogramming ([2]; Ascl1 + Bcl-2, 150 h): did not affect the rate of proliferation during reprogramming | effect on speed of astrocyte-to-neuron conversion ([2]; Ascl1 + Bcl-2, first 50-75 h of tracking): accelerated astrocyte-to-neuron conversion | increase of proportion of cells successfully completing reprogramming into neurons ([2]; at 50 h of tracking): ~8 fold | increase of proportion of cells successfully completing reprogramming into neurons ([2]; end of the tracking time period): over 3 fold | effect on survival of cells during neuronal conversion ([2]; co-transduction with Ascl1, 150 hours imaging): robustly enhanced survival of cells during neuronal conversion | neuronal conversion in MEFs (β-III-tubulin) ([3]; Ascl1-based retroviral vectors, 14 days after infection): 42.8% | effect on expression of vdr (vitamin d receptor (vdr)): induces expression of vdr | neuronal conversion of co-transduced cells (GFP+/RFP+) (reactive glial cells; Neurog2-IRES-RFP and Bcl-2-IRES-GFP co-transduced, 10 DPI): many co-transduced cells (GFP+/RFP+) exhibited elongated neuronal-shape morphology and were immunoreactive for NeuN | acquisition of neuronal marker NeuN by singly transduced cells (reactive glial cells; 10 DPI): rarely acquired the neuronal marker NeuN | effect on total number of surviving cells and reprogrammed neurons ([1]; co-transfected with Ascl1/RFP, 6 and 12 days): distinctly increased the total number of surviving cells and reprogrammed neurons

B2: Vdr: murine vitamin D receptor over-expressed from retroviral vector RV-pCAG-Vdr-IRES-GFP (protein, listed as Mus musculus)
chain: MEAMAASTSLPDPGDFDRNVPRICGVCGDRATGFHFNAMTCEGCKGFFRRSMKRKALFTCPFNGDCRITKDNRRHCQACRLKRCVDIGMMKEFILTDEEVQRKREMIMKRKEEEALKDSLRPKLSEEQQHIIAILLDAHHKTYDPTYADFRDFRPPIRADVSTGSYSPRPTLSFSGDSSSNSDLYTPSLDMMEPASFSTMDLNEEGSDDPSVTLDLSPLSMLPHLADLVSYSIQKVIGFAKMIPGFRDLTSDDQIVLLKSSAIEVIMLRSNQSFTLDDMSWDCGSQDYKYDITDVSRAGHTLELIEPLIKFQVGLKKLNLHEEEHVLLMAICIVSPDRPGVQDAKLVEAIQDRLSNTLQTYIRCRHPPPGSHQLYAKMIQKLADLRSLNEEHSKQYRSLSFQPENSMKLTPLVLEVFGNEIS
effect on reprogramming efficiency of human fibroblasts (adult human fibroblasts): enhance reprogramming efficiency | effect on reprogramming efficiency of astrocytes ([1]; 5 DPT): enhance reprogramming efficiency

B3: Neurog2: neurogenic transcription factor expressed from retroviral vector with RFP (protein, UniProt P70447 1-263, looked up)
Neurogenin-2: MFVKSETLELKEEEEVLMLLGSASPASATLTPMSSSADEEEDEELRRPGSARGQRGAEAEQGVQGSPASGAGGCRPGRLLGLMHECKRRPSRSRAVSRGAKTAETVQRIKKTRRLKANNRERNRMHNLNAALDALREVLPTFPEDAKLTKIETLRFAHNYIWALTETLRLADHCAGAGGLQGALFTEAVLLSPGAALGASGDSPSPPSSWSCTNSPASSSNSTSPYSCTLSPASPGSDVDYWQPPPPEKHRYAPHLPLARDCI
proportion of neurons induced from MEFs, of all infected cells ([3]; Neurog2-based retroviral vectors, 15 days after infection): 10% | acquisition of neuronal marker NeuN by singly transduced cells (reactive glial cells; 10 DPI): rarely acquired the neuronal marker NeuN
